Tests used:
Cf2-PBD-VP64 (human) = Cf2-PBD-VP64 (human) (UniProt P06401); experiment: cell-based or functional assay
ER-VP64 (mouse) = ER-VP64 (mouse) (UniProt P19785); experiment: cell-based or functional assay
ER-VP64 (mouse), sequence (P19785 282-599 G525R): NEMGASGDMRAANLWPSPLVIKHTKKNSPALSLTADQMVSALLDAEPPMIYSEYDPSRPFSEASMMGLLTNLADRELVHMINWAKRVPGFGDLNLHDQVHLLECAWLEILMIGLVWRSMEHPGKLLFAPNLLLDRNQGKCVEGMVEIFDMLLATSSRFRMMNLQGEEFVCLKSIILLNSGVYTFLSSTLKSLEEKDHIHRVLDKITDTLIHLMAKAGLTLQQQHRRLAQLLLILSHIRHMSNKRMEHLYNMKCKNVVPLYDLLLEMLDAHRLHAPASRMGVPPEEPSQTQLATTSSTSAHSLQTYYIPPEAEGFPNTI

C7-PBD-VP64, sequence (P06401 640-914): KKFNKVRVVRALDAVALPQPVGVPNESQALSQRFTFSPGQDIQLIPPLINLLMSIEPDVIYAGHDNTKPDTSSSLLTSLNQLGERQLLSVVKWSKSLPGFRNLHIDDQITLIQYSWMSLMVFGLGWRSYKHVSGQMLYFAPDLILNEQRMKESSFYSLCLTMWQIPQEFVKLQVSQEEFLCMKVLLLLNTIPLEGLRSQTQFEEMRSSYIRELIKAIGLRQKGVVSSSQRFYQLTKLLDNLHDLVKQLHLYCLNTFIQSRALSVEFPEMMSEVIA
Cf2-PBD-VP64 (human), sequence (P06401 640-914): as above

C7-PBD-VP64 (from UniProt P06401 640-914)
ligand-dependent change in transcription, C7-Cf2 TATA luciferase reporter (Cf2-PBD-VP64 (human)): 2 fold

E2C-ER (from UniProt P19785 282-599)
luciferase assay, erbB-2 promoter activity in HeLa cells, with Tamoxifen (ER-VP64 (mouse)): 3 fold | tamoxifen-dependent activation of the erbB-2 promoter (luciferase) (ER-VP64 (mouse)): 5.3 fold

From patent US20080318839A1
